The nature of this data set: Stability of diluted alkaline phosphatase in the enzyme diluent. Type of data set: physicochemical. The conditions noted are these: ≅100 molecules of alkaline phosphatase per ml of diluent, stored at 4° C. The source says:
As is known to those skilled in the art, the stability of the enzyme is the most important factor in the detection of biological molecules. The present invention utilizes a unique diluent or buffer based upon the composition of human blood serum. The present diluent is a tris-buffer containing proteins, metal halides such as sodium chloride, potassium chloride, magnesium chloride, zinc chloride, and the like, alcohols or polyhydric alcohols and sodium azide. The pH of the buffer is between 7.5 to 8.5.

For alkaline phosphatase, the “stability of enzyme in diluent” value is given as “stable at least for one week”.

The record behind these values is patent US6767716B2, “Chemluminescent systems containing unsaturated 1,2-dioxetanes” (priority 2000, dated 2004).
